Measured values taken from patent publication US20240059759A1.
Substitutions are numbered along the chain they refer to. Values joined by “and” are separate entries in the source; they are usually repeats but may differ in a detail not shown here. Equal values may be shown once. Read-outs that look alike come from different tables or passages of the source.

How the values were obtained:
CoV-2 (SARS-CoV-2) [1] = target: CoV-2 (SARS-CoV-2)
CoV-2 (SARS-CoV-2) [2] = target: CoV-2 (SARS-CoV-2); remark: listed apart in the source
CoV-2 (SARS-CoV-2) [3] = target: CoV-2 (SARS-CoV-2); remark: listed apart in the source
[4] = target: SARS-CoV-2 Spike RBD-His Tag, Sino Biological (SARS-CoV-2)
[5] = target: SARS-CoV-2 Spike RBD-His Tag, Sino Biological (SARS-CoV-2); remark: listed apart in the source
[6] = target: SARS-CoV-2 Spike RBD-His Tag, Sino Biological (SARS-CoV-2); remark: listed apart in the source
[7] = target: SARS-CoV-2 Spike RBD-His Tag, Sino Biological (SARS-CoV-2); remark: listed apart in the source
[8] = target: SARS-CoV-2 Spike RBD-His Tag, Sino Biological (SARS-CoV-2); remark: listed apart in the source
[9] = target: SARS-CoV-2 Spike RBD-His Tag, Sino Biological (SARS-CoV-2); remark: listed apart in the source
[10] = target: SARS-CoV-2 Spike RBD-His Tag, Sino Biological (SARS-CoV-2); remark: listed apart in the source
[11] = target: SARS-CoV-2 Spike RBD-His Tag, Sino Biological (SARS-CoV-2); remark: listed apart in the source
[12] = target: SARS-CoV-2 Spike RBD-His Tag, Sino Biological (SARS-CoV-2); remark: listed apart in the source
[13] = target: SARS-CoV-2 Spike RBD-His Tag, Sino Biological (SARS-CoV-2); remark: listed apart in the source
[14] = target: SARS-CoV-2 Spike RBD-His Tag, Sino Biological (SARS-CoV-2); remark: listed apart in the source
[15] = target: SARS-CoV-2 Spike RBD-His Tag, Sino Biological (SARS-CoV-2); remark: listed apart in the source
CoV-2 (SARS-CoV-2) [16] = target: CoV-2 (SARS-CoV-2); remark: listed apart in the source
CoV-2 (SARS-CoV-2) [17] = target: CoV-2 (SARS-CoV-2); remark: listed apart in the source
CoV-2 (SARS-CoV-2) [18] = target: CoV-2 (SARS-CoV-2); remark: listed apart in the source
[19] = target: SARS-CoV-2 Spike RBD-His Tag, Sino Biological (SARS-CoV-2); remark: listed apart in the source
[20] = target: SARS-CoV-2 Spike RBD-His Tag, Sino Biological (SARS-CoV-2); remark: listed apart in the source
[21] = target: SARS-CoV-2 Spike RBD-His Tag, Sino Biological (SARS-CoV-2); remark: listed apart in the source
CoV-2 (SARS-CoV-2) [22] = target: CoV-2 (SARS-CoV-2); remark: listed apart in the source
[23] = target: SARS-CoV-2 Spike RBD-His Tag, Sino Biological (SARS-CoV-2); remark: listed apart in the source
[24] = target: SARS-CoV-2 Spike RBD-His Tag, Sino Biological (SARS-CoV-2); remark: listed apart in the source
[25] = target: SARS-CoV-2 Spike RBD-His Tag, Sino Biological (SARS-CoV-2); remark: listed apart in the source

B1: vhh_tstrep_sars2_pjl1_L_1 (VHH)
VHH: QVQLQESGGGLVQAGGSLRLSCAASGRTFSEYAMGWFRQAPGKEREFVATISWSGGSTYYTDSVKGRFTISRDNAKNTVYLQMNSLKPDDTAVYYCGAAGLGTVVSEWDYDYDYWGQGTQVTVSS
CoV-2 (SARS-CoV-2) [1]
  xmid (log10): 0.839
CoV-2 (SARS-CoV-2) [2]
  xmid (log10): 0.903
CoV-2 (SARS-CoV-2) [3]
  xmid (log10): 0.321

B2: vhh_tstrep_sars2_pjl1_L_115 (VHH)
VHH: B1 VHH with S57A, Y60H, G97A, G100D
[4]
  xmid (log10): 0.0337
[5]
  xmid (log10): -0.277

B3: vhh_tstrep_sars2_pjl1_L_119 (VHH)
VHH: B1 VHH with I51E, S57A, Y60H, G97A
[6]
  xmid (log10): 0.385
[7]
  xmid (log10): 0.39

B4: vhh_tstrep_sars2_pjl1_L_126 (VHH)
VHH: B1 VHH with S57A, T58S, Y60H, G97A
[8]
  xmid (log10): -0.398
[9]
  xmid (log10): 0.489

B5: vhh_tstrep_sars2_pjl1_L_125 (VHH)
VHH: B1 VHH with S57A, Y60H, G97A, G102R
[10]
  xmid (log10): 0.297
[7]
  xmid (log10): 0.108

B6: vhh_tstrep_sars2_pjl1_L_135 (VHH)
VHH: B1 VHH with S57A, Y60H, G97A, G102W
[9]
  xmid (log10): -1.5
[11]
  xmid (log10): -1.65

B7: vhh_tstrep_sars2_pjl1_L_76 (VHH)
VHH: B1 VHH with S57A, Y60E, G97A
[12]
  xmid (log10): -0.368
[13]
  xmid (log10): -0.184

B8: vhh_tstrep_sars2_pjl1_L_121 (VHH)
VHH: B1 VHH with G56W, S57A, Y60H, G97A
[8]
  xmid (log10): -0.645
[6]
  xmid (log10): -0.224

B9: vhh_tstrep_sars2_pjl1_L_124 (VHH)
VHH: B1 VHH with S57G, Y60H, G97A
[10]
  xmid (log10): -1.84
[8]
  xmid (log10): -1.89

B10: vhh_tstrep_sars2_pjl1_L_113 (VHH)
VHH: B1 VHH with S57A, Y60H, G97A, Y110F
[14]
  xmid (log10): -0.0032
[8]
  xmid (log10): 0.334

B11: vhh_tstrep_sars2_pjl1_L_82 (VHH)
VHH: B1 VHH with S57A, G97A, G100E
[12]
  xmid (log10): 0.109
[15]
  xmid (log10): 0.155

B12: vhh_tstrep_sars2_pjl1_L_123 (VHH)
VHH: B1 VHH with S54I, S57A, Y60H, G97A
[9]
  xmid (log10): 0.9
[11]
  xmid (log10): 0.157

B13: vhh_tstrep_sars2_pjl1_L_27 (VHH)
VHH: B1 VHH with G97A, G102A
CoV-2 (SARS-CoV-2) [16]
  xmid (log10): 0.577
CoV-2 (SARS-CoV-2) [17]
  xmid (log10): 0.178
CoV-2 (SARS-CoV-2) [18]
  xmid (log10): 0.407

B14: vhh_tstrep_sars2_pjl1_L_150 (VHH)
VHH: B1 VHH with S57A, T58G, Y60H, G97A
[19]
  xmid (log10): 0.171
[20]
  xmid (log10): 0.879

B15: vhh_tstrep_sars2_pjl1_L_114 (VHH)
VHH: B1 VHH with S57A, Y60H, G97A, A98P
[19]
  xmid (log10): 0.526
[14]
  xmid (log10): 0.263

B16: vhh_tstrep_sars2_pjl1_L_132 (VHH)
VHH: B1 VHH with S54G, S57A, Y60H, G97A
[11]
  xmid (log10): -0.157
[21]
  xmid (log10): 0.0703

B17: vhh_tstrep_sars2_pjl1_L_24 (VHH)
VHH: B1 VHH with Y59A, G97A
CoV-2 (SARS-CoV-2) [16]
  xmid (log10): 0.908
CoV-2 (SARS-CoV-2) [1]
  xmid (log10): 0.515
CoV-2 (SARS-CoV-2) [22]
  xmid (log10): 0.582

B18: vhh_tstrep_sars2_pjl1_L_112 (VHH)
VHH: B1 VHH with S57A, Y60H, S63T, G97A
[19]
  xmid (log10): -1.27
[14]
  xmid (log10): -1.14

B19: vhh_tstrep_sars2_pjl1_L_46 (VHH)
VHH: B1 VHH with G97A, W108A
CoV-2 (SARS-CoV-2) [17]
  xmid (log10): 1.65

B20: vhh_tstrep_sars2_pjl1_L_117 (VHH)
VHH: B1 VHH with S57A, Y60H, D62W, G97A
[19]
  xmid (log10): -1.5
[6]
  xmid (log10): -1.7

B21: vhh_tstrep_sars2_pjl1_L_118 (VHH)
VHH: B1 VHH with S57A, Y59G, Y60H, G97A
[8]
  xmid (log10): 0.412
[6]
  xmid (log10): 0.784

B22: vhh_tstrep_sars2_pjl1_L_139 (VHH)
VHH: B1 VHH with S57A, Y60H, G97A, Y112F
[23]
  xmid (log10): 0.366

B23: vhh_tstrep_sars2_pjl1_L_127 (VHH)
VHH: B1 VHH with S57A, T58A, Y60H, G97A
[8]
  xmid (log10): -0.006
[6]
  xmid (log10): 0.479

B24: vhh_tstrep_sars2_pjl1_L_38 (VHH)
VHH: B1 VHH with G97A, D109A
CoV-2 (SARS-CoV-2) [16]
  xmid (log10): 0.854
CoV-2 (SARS-CoV-2) [17]
  xmid (log10): -0.286
CoV-2 (SARS-CoV-2) [2]
  xmid (log10): 0.0417

B25: vhh_tstrep_sars2_pjl1_L_22 (VHH)
VHH: B1 VHH with W53A, G97A
CoV-2 (SARS-CoV-2) [16]
  xmid (log10): 0.892
CoV-2 (SARS-CoV-2) [2]
  xmid (log10): 1.08
CoV-2 (SARS-CoV-2) [22]
  xmid (log10): 0.688

B26: vhh_tstrep_sars2_pjl1_L_75 (VHH)
VHH: B1 VHH with S57A, Y60S, G97A
[24]
  xmid (log10): 0.0467
[13]
  xmid (log10): -0.0338

B27: vhh_tstrep_sars2_pjl1_L_4 (VHH)
VHH: B1 VHH with G97A, A99G
CoV-2 (SARS-CoV-2) [1]
  xmid (log10): 0.752
CoV-2 (SARS-CoV-2) [3]
  xmid (log10): -0.0058
CoV-2 (SARS-CoV-2) [18]
  xmid (log10): 0.673

B28: vhh_tstrep_sars2_pjl1_L_137 (VHH)
VHH: B1 VHH with S57A, Y60H, G97A, E107A
[11]
  xmid (log10): -1.3
[21]
  xmid (log10): -0.676

B29: vhh_tstrep_sars2_pjl1_L_77 (VHH)
VHH: B1 VHH with S57A, Y60H, G97A
[24]
  xmid (log10): -1.42
[10]
  xmid (log10): -1.54
[4]
  xmid (log10): -1.92
[5]
  xmid (log10): -1.54
[25]
  xmid (log10): -1.54
[21]
  xmid (log10): -1.6
[23]
  xmid (log10): -1.66 and -1.72
[7]
  xmid (log10): -1.49
[13]
  xmid (log10): -1.22

B30: vhh_tstrep_sars2_pjl1_L_32 (VHH)
VHH: B1 VHH with G97A, E107A
CoV-2 (SARS-CoV-2) [16]
  xmid (log10): 0.532
CoV-2 (SARS-CoV-2) [2]
  xmid (log10): 0.239
CoV-2 (SARS-CoV-2) [22]
  xmid (log10): -0.271

B31: vhh_tstrep_sars2_pjl1_L_120 (VHH)
VHH: B1 VHH with S57A, Y60H, K65D, G97A
[5]
  xmid (log10): -0.493
[7]
  xmid (log10): -0.0348

B32: vhh_tstrep_sars2_pjl1_L_130 (VHH)
VHH: B1 VHH with S57A, Y60H, G66A, G97A
[9]
  xmid (log10): 0.204
[25]
  xmid (log10): -0.532

B33: vhh_tstrep_sars2_pjl1_L_144 (VHH)
VHH: B1 VHH with I51S, S57A, Y60H, G97A
[20]
  xmid (log10): -0.0515
[21]
  xmid (log10): 0.491

B34: vhh_tstrep_sars2_pjl1_L_80 (VHH)
VHH: B1 VHH with S57A, D62R, G97A
[24]
  xmid (log10): -0.61
[15]
  xmid (log10): -0.743

B35: vhh_tstrep_sars2_pjl1_L_133 (VHH)
VHH: B1 VHH with S57A, Y60H, G97A, Y114S
[10]
  xmid (log10): -1.46
[11]
  xmid (log10): -1.7

B36: vhh_tstrep_sars2_pjl1_L_129 (VHH)
VHH: B1 VHH with S57A, Y60H, D62T, G97A
[6]
  xmid (log10): -1.34
[25]
  xmid (log10): -1.34

B37: vhh_tstrep_sars2_pjl1_L_116 (VHH)
VHH: B1 VHH with T50S, S57A, Y60H, G97A
[5]
  xmid (log10): -0.0157
[7]
  xmid (log10): 0.288

B38: vhh_tstrep_sars2_pjl1_L_81 (VHH)
VHH: B1 VHH with S57A, G97A, G100R
[12]
  xmid (log10): 1.06
[15]
  xmid (log10): 0.479

B39: vhh_tstrep_sars2_pjl1_L_40 (VHH)
VHH: B1 VHH with D62A, G97A
CoV-2 (SARS-CoV-2) [17]
  xmid (log10): -0.664
CoV-2 (SARS-CoV-2) [1]
  xmid (log10): 0.226

B40: vhh_tstrep_sars2_pjl1_L_128 (VHH)
VHH: B1 VHH with W53P, S57A, Y60H, G97A
[9]
  xmid (log10): 0.384
[25]
  xmid (log10): -0.2

B41: vhh_tstrep_sars2_pjl1_L_85 (VHH)
VHH: B1 VHH with S57A, G97A, G102E
[12]
  xmid (log10): -0.815
[15]
  xmid (log10): -1.05
